Substitutions are numbered along the chain they refer to. Numbers in names are those of the source. Values belong to the binder of their own block, whether it stands above or below them.
Assays:
[1] = target: T1, HA-REST E1009A/S1013A/S1024A/S1027A/S1030A (human, UniProt Q13127 1-1097); experiment: GST pull-down on glutathione agarose from co-transfected HEK293T cells, Western blot
T1 construct: mature; Expressed in HEK293T cells and tested in cell extracts; also called E1009A/S1013/24/27/30A; REST degron mutant; not shown: HA tag
T1 sequence (looked up): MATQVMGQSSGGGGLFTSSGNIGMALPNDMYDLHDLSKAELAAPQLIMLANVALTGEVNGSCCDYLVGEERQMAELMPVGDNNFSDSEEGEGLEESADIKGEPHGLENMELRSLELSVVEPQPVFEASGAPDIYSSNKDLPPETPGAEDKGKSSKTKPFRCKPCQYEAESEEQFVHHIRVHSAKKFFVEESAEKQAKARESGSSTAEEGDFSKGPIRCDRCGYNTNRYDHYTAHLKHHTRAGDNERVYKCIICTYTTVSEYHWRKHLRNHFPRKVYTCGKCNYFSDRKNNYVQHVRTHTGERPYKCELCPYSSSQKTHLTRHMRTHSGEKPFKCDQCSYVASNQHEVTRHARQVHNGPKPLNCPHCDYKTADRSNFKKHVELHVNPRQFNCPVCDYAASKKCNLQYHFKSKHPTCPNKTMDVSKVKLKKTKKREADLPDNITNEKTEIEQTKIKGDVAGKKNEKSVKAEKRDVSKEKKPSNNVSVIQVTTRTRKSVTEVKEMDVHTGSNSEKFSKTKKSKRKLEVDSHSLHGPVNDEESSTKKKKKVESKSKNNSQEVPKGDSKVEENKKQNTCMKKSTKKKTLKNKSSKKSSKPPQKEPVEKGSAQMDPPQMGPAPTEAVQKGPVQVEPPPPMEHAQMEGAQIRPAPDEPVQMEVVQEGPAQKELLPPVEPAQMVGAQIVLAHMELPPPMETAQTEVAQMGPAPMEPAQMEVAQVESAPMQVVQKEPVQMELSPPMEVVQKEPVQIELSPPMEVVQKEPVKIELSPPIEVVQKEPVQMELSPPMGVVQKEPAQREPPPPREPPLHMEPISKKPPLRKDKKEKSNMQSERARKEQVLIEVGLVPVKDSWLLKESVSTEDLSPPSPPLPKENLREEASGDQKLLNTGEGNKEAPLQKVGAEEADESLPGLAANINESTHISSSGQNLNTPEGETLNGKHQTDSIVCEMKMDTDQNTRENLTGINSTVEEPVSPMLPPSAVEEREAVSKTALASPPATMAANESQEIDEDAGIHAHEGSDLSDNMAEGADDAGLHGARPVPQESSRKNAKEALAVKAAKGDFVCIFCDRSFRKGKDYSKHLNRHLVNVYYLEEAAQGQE
Description: HA-REST cDNAs were transfected into HEK293T cells along with GST-βTrCP, and FLAG-Dominant Negative Cull to stabilize REST. Cell extracts were collected on glutathione agarose and probed with anti-HA or anti-GST antibodies.
Whole cell lysates were prepared and immunoprecipitated following the procedures in Ballas N et al, 2001 supra and Nesti E et al, Mol Biol Cell 15, 4073-4088 (2004); incorporated by reference herein. Western blots were performed by standard procedures using antibodies described below and analyzed using anti IgG conjugated to infrared dyes (ThermoFisher) on an Odyssey® infrared fluorescence imager (LiCor). For detecting phosphorylated REST at S861/S864, cell extracts were prepared lacking phosphatase inhibitors. For phosphatase treatment, 75 μg of total protein was treated with 600 U lambda phosphatase (New England Biolabs) or with buffer alone at 30° C. for 1 h, according to the manufacturer's protocol. Thirty-five μg of treated protein were resolved by SDS-PAGE and Western blotted with the non-phospho-depleted anti REST phospho antibody (rabbit #101) at 1:500 in 3% BSA/1×TBS-0.5% Tween-20® overnight at 4° C., followed by anti-rabbit IgG-IR680 conjugated secondary antibody (Thermo Fisher) at 1:15000 in 5% milk/TBS-Tween for 1 hour at room temp. Infrared fluorescence was detected on the Odyssey® imager (LiCor) in the 700 nm channel. […]

HA-REST S861A/S864A = target: T2, HA-REST S861A/S864A (human, UniProt Q13127 1-1097); experiment: FLAG immunoprecipitation from transfected HEK293T cells, Western blot
T2 construct: mature; Expressed in HEK293T cells and tested in cell extracts; also called mutant S861A/S864A REST; not shown: HA tag
T2 sequence (looked up): T1 sequence (looked up) with S861A, S864A, A1009E, A1013S, A1024S, A1027S, A1030S
Excerpt: CTDSP1 was first identified as a nuclear phosphatase targeting the C-terminus of RNA polymerase II (R HR et al, BMB Rep 47, 192-196 (2014); Feng Y et al, Biochem Biophys Res Commun 397, 355-360 (2010); and Zhang Y et al, Mol Cell 24, 759-770 (2006); all of which are incorporated by reference herein). Subsequently it was implicated in REST repression of neuronal gene expression in P19 embryonal carcinoma cells that have the capacity to differentiate into neurons (Visvanathan J et al, Genes Dev 21, 744-749 (2007); incorporated by reference herein). […] REST was detected in FLAG-immunocomplexes only when the site was unmutated or double-substituted with glutamate, a phosphorylation-mimic.
Whole cell lysates were prepared and immunoprecipitated following the procedures in Ballas N et al, 2001 supra and Nesti E et al, Mol Biol Cell 15, 4073-4088 (2004); incorporated by reference herein. Western blots were performed by standard procedures using antibodies described below and analyzed using anti IgG conjugated to infrared dyes (ThermoFisher) on an Odyssey® infrared fluorescence imager (LiCor). […] Infrared fluorescence was detected on the Odyssey® imager (LiCor) in the 700 nm channel. […]

[2] = target: T3, Pin1 (peptidyl-prolyl cis/trans isomerase), human (human, UniProt Q13526 1-163); experiment: co-immunoprecipitation from transfected HEK293T cells, Western blot
T3 construct: also called Human Pin1
T3 sequence (Q13526 whole entry): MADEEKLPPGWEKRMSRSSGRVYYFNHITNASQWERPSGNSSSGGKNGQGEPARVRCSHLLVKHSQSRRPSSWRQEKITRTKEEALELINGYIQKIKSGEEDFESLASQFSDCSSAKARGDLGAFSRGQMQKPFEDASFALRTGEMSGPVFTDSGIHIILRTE
Description: FIG. 4A is an image of a Western blot of co-immunoprecipitation analysis showing Pin1 is present in REST (810-910) immunoprecipitates in a phospho-dependent manner. HEK293T cells were transfected with Pin1 cDNA and either WT or mutant (S861A/S864A) FLAG-REST (810-910) or FLAG-control (595-694) peptide cDNAs (FIG. 3). After 48 hours, the cells were extracted and immunoprecipitated. Western blots were probed with the indicated antibodies.
To confirm this, HEK cells were transfected with FLAG-Pin1 and cDNAs encoding the 100 amino acid peptides described above containing an S861/S864 or an S861A/S864A sites. Pin1 was present in immunocomplexes of unmutated REST (810-910) reporter peptides, but not phosphorylation-resistant mutant S861A/S864A peptides (FIG. 4A). […]
Whole cell lysates were prepared and immunoprecipitated following the procedures in Ballas N et al, 2001 supra and Nesti E et al, Mol Biol Cell 15, 4073-4088 (2004); incorporated by reference herein. Western blots were performed by standard procedures using antibodies described below and analyzed using anti IgG conjugated to infrared dyes (ThermoFisher) on an Odyssey® infrared fluorescence imager (LiCor). […]

binding result [1]: no binding
B1: GST-βTrCP (other, UniProt Q9Y297 1-605, looked up)
chain: MDPAEAVLQEKALKFMCSMPRSLWLGCSSLADSMPSLRCLYNPGTGALTAFQNSSEREDCNNGEPPRKIIPEKNSLRQTYNSCARLCLNQETVCLASTAMKTENCVAKTKLANGTSSMIVPKQRKLSASYEKEKELCVKYFEQWSESDQVEFVEHLISQMCHYQHGHINSYLKPMLQRDFITALPARGLDHIAENILSYLDAKSLCAAELVCKEWYRVTSDGMLWKKLIERMVRTDSLWRGLAERRGWGQYLFKNKPPDGNAPPNSFYRALYPKIIQDIETIESNWRCGRHSLQRIHCRSETSKGVYCLQYDDQKIVSGLRDNTIKIWDKNTLECKRILTGHTGSVLCLQYDERVIITGSSDSTVRVWDVNTGEMLNTLIHHCEAVLHLRFNNGMMVTCSKDRSIAVWDMASPTDITLRRVLVGHRAAVNVVDFDDKYIVSASGDRTIKVWNTSTCEFVRTLNGHKRGIACLQYRDRLVVSGSSDNTIRLWDIECGACLRVLEGHEELVRCIRFDNKRIVSGAYDGKIKVWDLVAALDPRAPAGTLCLRTLVEHSGRVFRLQFDEFQIVSSSHDDTILIWDFLNDPAAQAEPPRSPSRTYTYISR
notes: also called βTrCP-GST fusion; bTrCP; not shown: GST

binding result (HA-REST S861A/S864A): no binding
B2: FLAG-CTDSP1 (enzyme, not shown: small tags and cut ends)
chain: MDSSAVITQISKEEARGPLRGKGDQKSAASQKPRSRGILHSLFCCVCRDDGEALPAHSGAPLLVEENGAIPKQTPVQYLLPEAKAQDSDKICVVIDLDETLVHSSFKPVNNADFIIPVEIDGVVHQVYVLKRPHVDEFLQRMGELFECVLFTASLAKYADPVADLLDKWGAFRARLFRESCVFHRGNYVKDLSRLGRDLRRVLILDNSPASYVFHPDNAVPVASWFDNMSDTELHDLLPFFEQLSRVDDVYSVLRQPRPGS
notes: also called C-terminal domain small phosphatase

binding result [2]: no binding
B3: FLAG-REST (810-910)-GFP reporter peptide S861A/S864A (peptide)
chain: ISKKPPLRKDKKEKSNMQSERARKEQVLIEVGLVPVKDSWLLKESVSTEDLAPPAPPLPKENLREEASGDQKLLNTGEGNKEAPLQKVGAEEADESLPGLA
notes: also called mutant (S861A/S864A) FLAG-REST (810-910); phosphorylation-resistant mutant S861A/S864A peptide; not shown: N-terminal FLAG tag with linker; C-terminal eGFP tag (pEGFP-N1)

From patent US20160031958A1 (OREGON HEALTH AND SCIENCE UNIVERSITY, published 2016)
